# From patent publication WO2019030706A1 (dated 2019)
# Tests used:
# mature human thrombin = mature human thrombin (human, UniProt P00734 314-363; P00734 364-622); assay: estimate from the rate of S2238 hydrolysis by thrombin
# prothrombin [1] = target: T1, prothrombin (human, UniProt P00734 44-622); assay: pull-down with IgA binding lectin-agarose, supernatant on SDS-PAGE
# prothrombin [2] = target: T1, prothrombin; assay: ForteBio Octet, immobilized IgG
Kd (mature human thrombin),binding result (prothrombin [1]),binding result (prothrombin [2]),Binder
~12 nM,no binding,–,"wild-type anti-exosite 1 IgA antibody (antibody, V domains shown, also called anti-thrombin IgA; anti-IIa IgA) VH: QVQLIQSGSAVKKPGASVRVSCKVSGYTLTEAAIHWVRQAPGKGLEWMGGLDPQDGETVYAQQFKGRVTMTEDRSTDTAYMEVNNLRSEDTATYYCTTGDFSEFEPFSMDYFHFWGQGTVVTVAS VL: EIVLTQSPATLSLSPGERATLSCRASQNVSSFLAWYQHKPGQAPRLLIYDASSRATDIPIRFSGSGSGTDFTLTISGLEPEDFAVYYCQQRRSWPPLTFGGGTKVEIKR"
–,–,no binding (tested: 500nM),"synthetic anti-exosite 1 IgG antibody (antibody, V domains shown, also called synthetic IgG; anti-exosite IgG antibody) VH: QVQLIQSGSAVKKPGASVRVSCKVSGYTLTEAAIHWVRQAPGKGLEWMGGLDPQDGETVYAQQFKGRVTMTEDRSTDTAYMEVNNLRSEDTATYYCTTGDFSEFEPFSMDYFHFWGQGTVVTVAS VL: EIVLTQSPATLSLSPGERATLSCRASQNVSSFLAWYQHKPGQAPRLLIYDASSRATDIPIRFSGSGSGTDFTLTISGLEPEDFAVYYCQQRRSWPPLTFGGGTKVEIKR"
